# Values of other authors in publication PMC3362950.
# Target: Kv1.3 (UniProt P22001)
# UniProt P22001, sequence (P22001 whole entry): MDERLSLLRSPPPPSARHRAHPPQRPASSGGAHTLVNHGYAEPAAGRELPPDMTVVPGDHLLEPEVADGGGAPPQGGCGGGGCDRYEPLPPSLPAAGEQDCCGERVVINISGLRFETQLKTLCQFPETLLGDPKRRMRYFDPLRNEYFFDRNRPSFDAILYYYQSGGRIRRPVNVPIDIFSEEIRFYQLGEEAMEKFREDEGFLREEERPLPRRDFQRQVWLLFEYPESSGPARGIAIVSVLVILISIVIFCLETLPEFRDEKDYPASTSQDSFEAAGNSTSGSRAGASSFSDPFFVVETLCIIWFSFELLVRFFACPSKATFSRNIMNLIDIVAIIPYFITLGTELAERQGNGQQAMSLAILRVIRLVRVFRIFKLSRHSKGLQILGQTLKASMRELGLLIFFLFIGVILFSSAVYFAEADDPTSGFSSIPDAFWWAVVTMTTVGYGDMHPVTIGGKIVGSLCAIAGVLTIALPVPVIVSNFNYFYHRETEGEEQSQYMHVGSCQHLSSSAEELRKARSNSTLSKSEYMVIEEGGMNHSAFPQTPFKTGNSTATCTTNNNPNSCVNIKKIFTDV
substance,measurement,value
KTX (from UniProt P24662),Kd,0.01 nM
